# Experimental data taken from article PMC8391104, “Molecular mechanism of Mad1 kinetochore targeting by phosphorylated Bub1” (EMBO Reports, 2021).
# Key:
# [1] = biological target: Mad1 C-terminal domain (Mad1^CTD) homodimer, residues 597-718 (human) (UniProt Q9Y6D9); experiment: NMR titration; 31P 1D spectra of phosphorylated Bub1^CD1 peptide with Mad1^CTD dimer at 1:1 and 1:2 dimer to peptide, around 0.25 to 0.5 mM of each; 50 mM HEPES pH 7.0, 100 mM NaCl, 2 mM TCEP, 0.02% NaN3, 298 K
# [2] = biological target: Mad1 C-terminal domain (Mad1^CTD) homodimer, residues 597-718 (human) (UniProt Q9Y6D9); experiment: ITC; Bub1^CD1 peptide (0.3-1.5 mM) titrated into Mad1 (30-100 µM) in the cell; 20°C; 20 mM HEPES pH 7.5, 100 mM NaCl, 1 mM TCEP; single-site model; stoichiometry counted on dimeric Mad1^CTD
# [3] = biological target: Mad1 C-terminal domain (Mad1^CTD) homodimer, residues 597-718 (human) (UniProt Q9Y6D9); experiment: crystal structure; co-crystallisation of Mad1^CTD (0.35 mM) with Bub1^CD1 peptide at 2.5 mM in 5% DMSO (or 5 mM in 10% DMSO); 10% isopropanol, 0.1 M Na HEPES pH 7.5, 20% PEG 4000; 21°C
# [4] = biological target: Mad1 C-terminal domain (Mad1^CTD) homodimer, residues 597-718 (human) (UniProt Q9Y6D9); experiment: NMR titration; 1H,15N 2D HSQC of 15N-labelled Mad1^CTD with unlabelled peptide added (dimer to peptide 1:0.5 to 1:4); 50 mM HEPES pH 7.0, 100 mM NaCl, 2 mM TCEP, 0.02% NaN3, 298 K
# Mad1 CTD, 597-718 = Mad1 CTD, 597-718 (UniProt Q9Y6D9); experiment: 1H,15N HSQC titration of 15N-Mad1CTD; conditions: reference: non-phosphorylated peptide; sites S459,T461
# Sequence of Mad1 C-terminal domain (Mad1^CTD) homodimer, residues 597-718 (human) (Q9Y6D9 597-718): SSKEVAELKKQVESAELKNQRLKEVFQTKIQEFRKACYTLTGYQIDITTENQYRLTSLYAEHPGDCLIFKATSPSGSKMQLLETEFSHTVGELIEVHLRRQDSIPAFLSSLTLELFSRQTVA
Substance,stoichiometry N (peptide per Mad1^CTD dimer) [1],Kd [2],stoichiometry N (peptide per Mad1 dimer) [2],stoichiometry N (peptides per Mad1^CTD homodimer) [3],stoichiometry N (peptide per Mad1^CTD dimer) [4],"binding against the reference (Mad1 CTD, 597-718)"
doubly phosphorylated Bub1^CD1 peptide (pSer459-pThr461),1,2700 nM,1,2,1,
"Bub1 CD1, 455-479 (from UniProt O43683) phosphorylated peptide",,,,,,gained
singly phosphorylated Bub1^CD1 peptide (pThr461),,3300 nM,,,,
